# Test results taken from the RNAGym collection of RNA variant scans (doi:10.1021/acssynbio.7b00057).
# B1: Pistol ribozyme (parent)
# chain: GGGUCGUUGUUCCAUAAUCGCGUGGAUAUGGCACGCAAGUUUCUACCGGGCACCGUAAAUGUCCGACUGGAGCCGUUCGGGCGGCUAUAAACAGACCUCAGGCCCGAAGCGUGGCGGCACCUGCCGCCGGUGGUAAAAAAGAUCGGAAGAGCACACGUCU
# Variants of: B1
# Experiment: aptazyme ON/OFF ratio, guanine; higher = stronger switching; co-transcriptional cleavage with and without guanine
row,Variant,aptazyme ON/OFF ratio
1,U7G U8A G9C U10A C13G,1.01
2,U7G U8A G9C U10A C13A,1.03
3,U7G U8A G9C U10A C13U,1.02
4,U7G U8A G9U U10A U11C C12A,1.07
5,U7G U8A G9U U10A U11C C12U,1.03
6,U7G U8A G9U U10A U11C C12G,1.09
7,U7G U8A G9C U10A U11C C13G,1.04
8,U7G U8A G9C U10A U11C C13A,1.04
9,U7G U8A G9C U10A U11C C13U,1.04
10,U7G U8A G9C U10G U11C C12G C13U,1.03
11,U7G U8A G9C U10G U11C C12G C13A,1.03
12,U7G U8A G9C U10G U11C C12G C13G,1.03
13,U7G U8A G9C U10A U11A,1.09
14,U7G U8A G9C U10A U11C,1.06
15,U7G U8A G9C U10A U11G,1.05
16,U7G U8A G9C C12U,1.04
17,U7G U8A G9C C12G,1.01
18,U7G U8A G9C C12A,1.02
19,U7G U8A G9C U10C C12G C13G,1.01
20,U7G U8A G9C U10C C12G C13A,1.14
21,U7G U8A G9C U10C C12G C13U,1.07
22,U7G U8A G9A U11G C12A C13G,1.13
23,U7G U8A G9A U11G C12A C13A,1.05
24,U7G U8A G9A U11G C12A C13U,1.23

row,Variant,aptazyme ON/OFF ratio
1,U7G U8A G9C U10A U11A C12A C13U,1.02
2,U7G U8A G9C U10A U11A C12A C13G,1.03
3,U7G U8A G9C U10A U11A C12A C13A,1.04
4,U7G U8A G9U U10A U11A C12U C13A,1.07
5,U7G U8A G9U U10A U11A C12U C13G,1.07
6,U7G U8A G9U U10A U11A C12U C13U,1.06
7,U7G U8A G9C U10G U11G C12U C13G,1.03
8,U7G U8A G9C U10G U11G C12U C13U,1.15
9,U7G U8A G9C U10G U11G C12U C13A,1.07
10,U7G U8A G9C U10C U11C C12U,1.03
11,U7G U8A G9C U10C U11C C12A,1.04
12,U7G U8A G9C U10C U11C C12G,1.03
13,U7G U8A G9U U10A C12G C13U,1.04
14,U7G U8A G9U U10A C12G C13G,1.07
15,U7G U8A G9U U10A C12G C13A,1.05
16,U7G U8A G9C U10G C13G,1.09
17,U7G U8A G9C U10G C13A,1.11
18,U7G U8A G9C U10G C13U,1.1
19,U7G U8A G9A U11G C12U,1.44
20,U7G U8A G9A U11G C12A,1.08
21,U7G U8A G9A U11G C12G,1.41
22,U7G U8A G9C U11C C12U C13A,1.06
23,U7G U8A G9C U11C C12U C13G,1.08
24,U7G U8A G9C U11C C12U C13U,1.03

row,Variant,aptazyme ON/OFF ratio
1,U7G U8A G9C U11C C12G C13U,1.04
2,U7G U8A G9C U11C C12G C13A,1.02
3,U7G U8A G9C U11C C12G C13G,1.03
4,U7G U8A G9C U10C U11A C12A C13U,1.03
5,U7G U8A G9C U10C U11A C12A C13G,1.02
6,U7G U8A G9C U10C U11A C12A C13A,1.01
7,U7G U8A G9C U10C U11G C12G C13U,1.02
8,U7G U8A G9C U10C U11G C12G C13A,1.02
9,U7G U8A G9C U10C U11G C12G C13G,1.02
10,U7G U8A G9C U11G C12A C13U,1.06
11,U7G U8A G9C U11G C12A C13A,1.05
12,U7G U8A G9C U11G C12A C13G,1.06
13,U7G U8A G9C U10G C12U C13U,1.06
14,U7G U8A G9C U10G C12U C13G,1.03
15,U7G U8A G9C U10G C12U C13A,1.06
16,U7G U8A G9U U10A U11C C13A,1.04
17,U7G U8A G9C U10A U11G C13U,1.02
18,U7G U8A G9C U10A U11G C13G,1.05
19,U7G U8A G9C U10A U11G C13A,1.02
20,U7G U8A G9A U11G C13G,1.03
21,U7G U8A G9A U11G C13A,1.13
22,U7G U8A G9A U11G C13U,1.21
23,U7G U8A G9C U10G C12G C13U,1.18
24,U7G U8A G9C U10G C12G C13G,1.08

row,Variant,aptazyme ON/OFF ratio
1,U7G U8A G9C U10G C12G C13A,1.06
2,U7G U8A G9C U10A C12A C13G,1.01
3,U7G U8A G9C U10A C12A C13A,1.05
4,U7G U8A G9C U10A C12A C13U,1.06
5,U7G U8A G9C U11A C12G C13U,1.04
6,U7G U8A G9C U11A C12G C13A,1.04
7,U7G U8A G9C U11A C12G C13G,1
8,U7G U8A G9C U10G U11A C12G C13G,1.04
9,U7G U8A G9C U10G U11A C12G C13A,1.01
10,U7G U8A G9C U10G U11A C12G C13U,1.07
11,U7G U8A G9C U10G U11C C13G,1.06
12,U7G U8A G9C U10G U11C C13U,1.02
13,U7G U8A G9C U10G U11C C13A,1.03
14,U7G U8A G9C U10C U11G C12U C13A,1.05
15,U7G U8A G9C U10C U11G C12U C13G,1.03
16,U7G U8A G9C U10C U11G C12U C13U,1.04
17,U7G U8A G9C U10C C12A C13G,1.03
18,U7G U8A G9C U10C C12A C13A,1.07
19,U7G U8A G9C U10C C12A C13U,1.01
20,U7G U8A G9C U10C U11A C12G,1.05
21,U7G U8A G9C U10C U11A C12U,1.07
22,U7G U8A G9C U10C U11A C12A,1.03
23,U7G U8A G9C U10A U11G C12U C13U,1.04
24,U7G U8A G9C U10A U11G C12U C13A,1.02

row,Variant,aptazyme ON/OFF ratio
1,U7G U8A G9C U10A U11G C12U C13G,1.01
2,U7G U8A G9C U11G C12A,1.03
3,U7G U8A G9C U11G C12U,1.14
4,U7G U8A G9C U11G C12G,1.04
5,U7G U8A G9C,1.12
6,U7G U8A G9U,2.15
7,U7G U8A G9C U11C C12A C13G,1.04
8,U7G U8A G9C U11C C12A C13U,1.06
9,U7G U8A G9C U11C C12A C13A,1.04
10,U7G U8A G9C U10C U11G C13G,1.03
11,U7G U8A G9C U10C U11G C13U,1.03
12,U7G U8A G9C U10C U11G C13A,1.04
13,U7G U8A G9C U10C U11G C12A C13A,1.02
14,U7G U8A G9C U10C U11G C12A C13U,1.01
15,U7G U8A G9C U10C U11G C12A C13G,1
16,U7G U8A G9U U10A C13U,1.02
17,U7G U8A G9U U10A C13A,1.06
18,U7G U8A G9U U10A C13G,1.03
19,U7G U8A G9C U10G U11A C12U C13U,1.03
20,U7G U8A G9C U10G U11A C12U C13G,1.06
21,U7G U8A G9C U10G U11A C12U C13A,1.03
22,U7G U8A G9U U10A C12U C13A,1.07
23,U7G U8A G9U U10A C12U C13U,1.07
24,U7G U8A G9U U10A C12U C13G,1.06

row,Variant,aptazyme ON/OFF ratio
1,U7G U8A G9U U10A,1.46
2,U7G U8A G9C U10C U11C C12G C13U,1.03
3,U7G U8A G9C U10C U11C C12G C13A,1.05
4,U7G U8A G9C U10C U11C C12G C13G,1.04
5,U7G U8A G9C U10A U11A C13U,1.04
6,U7G U8A G9C U10A U11A C13A,1.05
7,U7G U8A G9C U10A U11A C13G,1.04
8,U7G U8A G9C U10G U11C C12U C13A,1.05
9,U7G U8A G9C U10G U11C C12U C13G,1.03
10,U7G U8A G9C U10G U11C C12U C13U,1.04
11,U7G U8A G9C U11A C12U,1.03
12,U7G U8A G9C U11A C12G,1.04
13,U7G U8A G9C U11A C12A,1.03
14,U7G U8A G9C U10G C12U,1.03
15,U7G U8A G9C U10G C12A,1.02
16,U7G U8A G9C U10G C12G,1.06
17,U7G U8A G9U U10A U11A C12G,1.05
18,U7G U8A G9U U10A U11A C12U,1.09
19,U7G U8A G9U U10A U11A C12A,1.08
20,U7G U8A G9C U10A U11C C12G,1.05
21,U7G U8A G9C U10A U11C C12U,1.04
22,U7G U8A G9C U10A U11C C12A,1.05
23,U7G U8A G9C U10G U11G C12G,1.06
24,U7G U8A G9C U10G U11G C12U,1.32

row,Variant,aptazyme ON/OFF ratio
1,U7G U8A G9C U10G U11G C12A,1.08
2,U7G U8A G9C U10G U11G C12A C13U,1.03
3,U7G U8A G9C U10G U11G C12A C13A,1.05
4,U7G U8A G9C U10G U11G C12A C13G,1.03
5,U7G U8A G9C U10G U11G C12G C13G,1.05
6,U7G U8A G9C U10G U11G C12G C13U,1.01
7,U7G U8A G9C U10G U11G C12G C13A,1.05
8,U7G U8A G9U C12U C13G,1.07
9,U7G U8A G9U C12U C13A,1.06
10,U7G U8A G9U C12U C13U,1.07
11,U7G U8A G9C U11A C12U C13G,1.03
12,U7G U8A G9C U11A C12U C13U,1.02
13,U7G U8A G9C U11A C12U C13A,1.03
14,U7G U8A G9C U10C U11A,0.986
15,U7G U8A G9C U10C U11G,1.05
16,U7G U8A G9C U10C U11C,1.01
17,U7G U8A G9U U10A U11A C12A C13G,1.08
18,U7G U8A G9U U10A U11A C12A C13A,1.13
19,U7G U8A G9U U10A U11A C12A C13U,1.04
20,U7G U8A G9A U11G,1.26
21,U7G U8A G9C U10A C12U C13U,1.05
22,U7G U8A G9C U10A C12U C13A,1.03
23,U7G U8A G9C U10A C12U C13G,0.956
